Measured values as given in paper PMC5915732, “Human Cytomegalovirus Encodes a Novel FLT3 Receptor Ligand Necessary for Hematopoietic Cell Differentiation and Viral Reactivation” (mBio, 2018).

Tests used:
[1] = target: human Fms-like tyrosine kinase 3 receptor (Flt-3R), GFP-tagged, on stable HEK-293 cells (HEK-293-hFlt-3R) (human) (UniProt P36888); test: ELISA; competition on cells: HEK-293-hFlt-3R cells preincubated 1 h with 100-fold excess of nonbiotinylated pUL7 (5 ug/ml), Flt-3L (5 ug/ml), anti-Flt-3R antibody (1:100) or control antibody, washed with MEM, then incubated with 50 ng/ml biotinylated pUL7; HRP-streptavidin, absorbance at 450 nm
[2] = target: human Fms-like tyrosine kinase 3 receptor (Flt-3R), GFP-tagged, on stable HEK-293 cells (HEK-293-hFlt-3R) (human) (UniProt P36888)
[3] = target: T1, human Fms-like tyrosine kinase 3 receptor (Flt-3R), GFP-tagged, on stable HEK-293 cells (HEK-293-hFlt-3R) (human, UniProt P36888 27-993); test: ELISA; competition on cells: HEK-293-hFlt-3R cells preincubated 1 h with 100-fold excess of nonbiotinylated pUL7 (5 ug/ml), Flt-3L (5 ug/ml), anti-Flt-3R antibody (1:100) or control antibody, washed with MEM, then incubated with 50 ng/ml biotinylated pUL7; HRP-streptavidin, absorbance at 450 nm; conditions: one partner purified
T1 construct: human fms-tyrosine kinase 3 (FLT3), GFP-tagged, from plasmid OriGene RG211459, expressed on HEK-293 cells; In the functional rows from RS4;11 cells the receptor was the endogenous human Flt-3R of those cells, not this construct; also called human Flt-3 receptor; source: HEK-293, stably transfected (OriGene plasmid RG211459, G418 selection), on cells
T1 sequence (looked up): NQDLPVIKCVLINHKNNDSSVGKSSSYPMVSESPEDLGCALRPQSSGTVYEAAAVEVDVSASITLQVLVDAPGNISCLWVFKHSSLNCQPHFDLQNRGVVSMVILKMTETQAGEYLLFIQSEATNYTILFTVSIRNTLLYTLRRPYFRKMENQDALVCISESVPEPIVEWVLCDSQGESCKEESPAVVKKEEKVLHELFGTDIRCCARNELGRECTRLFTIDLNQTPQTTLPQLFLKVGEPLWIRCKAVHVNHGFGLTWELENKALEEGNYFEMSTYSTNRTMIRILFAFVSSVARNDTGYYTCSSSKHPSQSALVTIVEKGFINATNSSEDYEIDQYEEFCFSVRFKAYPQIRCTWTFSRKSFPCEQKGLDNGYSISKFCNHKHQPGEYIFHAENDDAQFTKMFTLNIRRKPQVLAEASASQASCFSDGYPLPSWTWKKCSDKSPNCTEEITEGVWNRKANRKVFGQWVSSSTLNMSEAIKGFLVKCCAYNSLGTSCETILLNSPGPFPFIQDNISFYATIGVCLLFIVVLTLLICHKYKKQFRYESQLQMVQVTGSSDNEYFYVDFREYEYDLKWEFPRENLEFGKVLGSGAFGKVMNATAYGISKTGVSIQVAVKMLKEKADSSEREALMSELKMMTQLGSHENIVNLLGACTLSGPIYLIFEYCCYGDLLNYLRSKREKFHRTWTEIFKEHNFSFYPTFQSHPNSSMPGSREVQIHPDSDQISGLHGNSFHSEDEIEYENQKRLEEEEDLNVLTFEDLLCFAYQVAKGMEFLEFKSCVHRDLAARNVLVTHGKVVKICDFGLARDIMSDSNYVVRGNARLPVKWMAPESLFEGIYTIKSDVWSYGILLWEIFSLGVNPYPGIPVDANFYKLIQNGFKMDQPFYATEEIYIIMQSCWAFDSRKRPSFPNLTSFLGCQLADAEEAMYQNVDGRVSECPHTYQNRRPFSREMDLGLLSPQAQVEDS

| Molecule | percent reduction in binding of biotinylated pUL7 (100-fold excess of competitor) [1] | phosphorylation of Akt (immunoblot) in serum-starved RS4;11 cells stimulated with 50 ng/ml pUL7, within 10 min, fold compared to the Fc control [2] | phosphorylation of ERK1/2 (immunoblot) in serum-starved RS4;11 cells stimulated with 50 ng/ml pUL7, within 10 min, fold compared to the Fc control [2] | phosphorylation of Flt-3R (immunoblot) in serum-starved RS4;11 cells stimulated with 50 ng/ml pUL7, within 10 min, fold compared to the Fc control [2] | percent reduction in binding of biotinylated pUL7 (100-fold excess of competitor) [3] |
| --- | --- | --- | --- | --- | --- |
| purified UL7 (pUL7), recombinant UL7 protein from HCMV TB40E, nonbiotinylated (Fc fusion) | 62% | 8 fold | 9 fold | 14 fold |  |
| recombinant human Flt-3 ligand (Flt-3L) (ligand, UniProt P49771 27-184, looked up, recombinant human Flt-3 ligand, soluble; No catalogue number is printed; also called soluble Flt-3 ligand; 100XFlt-3L; source: bought: R&S Systems (so in the source)) TQDCSFQHSPISSDFAVKIRELSDYLLQDYPVTVASNLQDEELCGGLWRLVLAQRWMERLKTVAGSKMQGLLERVNTEIHFVTKCAFQPPPSCLRFVQTNISRLLQETSEQLVALKPWITRQNFSRCLELQCQPDSSTLPPPWSPRPLEATAPTAPQP |  |  |  |  | 63% |
